Measurements taken from PMC1939876.

Experiments:
Experiment in all cases: EMSA
[1] = test system: VP16-6ZfFLO11/F2-F1 (engineered); details: Buffer, salt, pH and temperature not given (methods cited); phage ELISA with 0.125-32 nM DNA; EMSA with 5-fold dilution series of TNT-expressed protein
[2] = test system: VP64-6ZfFLO11/F2-F1 (engineered); details: Buffer, salt, pH and temperature not given (methods cited); phage ELISA with 0.125-32 nM DNA; EMSA with 5-fold dilution series of TNT-expressed protein
[3] = test system: Zif268 3F peptide; details: calibration reference; value from ref 51; Buffer, salt, pH and temperature not given (methods cited); phage ELISA with 0.125-32 nM DNA; EMSA with 5-fold dilution series of TNT-expressed protein; cited from earlier work

Substance | binding signal (fold stronger than 3F rTFs) [1] | binding signal (fold stronger than 3F rTFs) [2] | Kd [3] [nM]
TFLO11/F2-F1 (also called F1-F2) 31-bp oligo | 10 | 10 | –
Zif268 cognate 9-bp site | – | – | 2
